Results: article doi:10.1101/2021.02.02.429416

Tests used:
Aflibercept = assay: ELISA
KP-VR2 (human) [1] = assay: ELISA
KP-VR2 (human) [2] = assay: BLI

EC50 (Aflibercept): 30.5 nM
EC50 (KP-VR2 (human) [1]): 2.39 nM
Kd (KP-VR2 (human) [2]): 0.78 nM
B1: Human PlGF-1 (ligand)
chain: LPAVPPQQWALSAGNGSSEVEVVPFQEVWGRSYCRALERLVDVVSEYPSEVEHMFSPSCVSLLRCTGCCGDENLHCVPVETANVTMQLLKIRSGDRPSYVELTFSQHVRCECRPLREKMKPERCGDAVPRR
